# Several values for one entry are separate records, joined by “and”; a condition that tells them apart may be missing. Equal values may be shown once.
# B1: D2R V96S/V97C, FLAG-D2R-Rluc8 / FLAG-D2R-Venus (receptor, UniProt P14416 1-443, looked up)
# chain: MDPLNLSWYDDDLERQNWSRPFNGSDGKADRPHYNYYATLLTLLIAVIVFGNVLVCMAVSREKALQTTTNYLIVSLAVADLLVATLVMPWVVYLESCGEWKFSRIHCDIFVTLDVMMCTASILNLCAISIDRYTAVAMPMLYNTRYSSKRRVTVMISIVWVLSFTISCPLLFGLNNADQNECIIANPAFVVYSSIVSFYVPFIVTLLVYIKIYIVLRRRRKRVNTKRSSRAFRAHLRAPLKGNCTHPEDMKLCTVIMKSNGSFPVNRRRVEAARRAQELEMEMLSSTSPPERTRYSPIPPSHHQLTLPDPSHHGLHSTPDSPAKPEKNGHAKDHPKIAKIFEIQTMPNGKTRTSLKTMSRRKLSQQKEKKATQMLAIVLGVFIICWLPFFITHILNIHCDCNIPPVLYSAFTWLGYVNSAVNPIIYTTFNIEFRKAFLKILHC
# notes: D2 dopamine receptor; mutant made from the FLAG-D2R-Rluc8 plasmid by site-directed mutagenesis; The mutant was also moved into the FLAG-D2R-Venus plasmid for saturation BRET; also called Mut2; D2R-Rluc8 V96S/V97C; source: HEK293, transfected; in intact cells (BRET, PD-PALM) and in lysate (Western blot); not shown: FLAG, N-terminal, kept; Rluc8 (donor copy)
# Key:
# [1] = target: D2R V96C, FLAG-D2R-Rluc8 / FLAG-D2R-Venus (UniProt P14416); assay: FRET or BRET; β-arrestin recruitment BRET in HEK293 cells: D2R-Rluc8 donor, βarr1-YFP or βarr2-YFP acceptor, 5 μM coelenterazine-h; basal (PBS) and after quinpirole (10 μM time course over 5 min, fitted to a one-phase association; 1 nM-1 mM concentration response)
# [2] = target: D2 dopamine receptor (D2R) wild type, FLAG-D2R-Rluc8 / FLAG-D2R-Venus (UniProt P14416); assay: as above
# [3] = target: D2R V96S, FLAG-D2R-Rluc8 / FLAG-D2R-Venus (UniProt P14416); assay: as above
# [4] = target: D2R Y93C, FLAG-D2R-Rluc8 / FLAG-D2R-Venus (UniProt P14416); assay: as above
# D2R V97C, FLAG-D2R-Rluc8 = D2R V97C, FLAG-D2R-Rluc8 (UniProt P14416); assay: as above
# [5] = target: the molecule itself; assay: PD-PALM (single-molecule localisation microscopy, TIRF, neighbourhood analysis); cell surface FLAG-D2R on HEK293 cells labelled with anti-FLAG-CAGE500 (1:1), fixed; Getis-Franklin neighbourhood analysis, search radius 50 nm; basal or after 5 min 10 μM quinpirole
Molecule,half time of quinpirole-induced recruitment [1] [s],initial rate of quinpirole-induced recruitment (BRET ratio units per second) [1],"k (rate constant of quinpirole-induced recruitment, one-phase association fit) [1] [s⁻¹]",half time of quinpirole-induced recruitment [2],half time of quinpirole-induced recruitment [3] [s],initial rate of quinpirole-induced recruitment (BRET ratio units per second) [3],"k (rate constant of quinpirole-induced recruitment, one-phase association fit) [3] [s⁻¹]",half time of quinpirole-induced recruitment [4] [s],initial rate of quinpirole-induced recruitment (BRET ratio units per second) [4],"k (rate constant of quinpirole-induced recruitment, one-phase association fit) [4] [s⁻¹]","half time of quinpirole-induced recruitment (D2R V97C, FLAG-D2R-Rluc8) [s]","initial rate of quinpirole-induced recruitment (BRET ratio units per second) (D2R V97C, FLAG-D2R-Rluc8)","k (rate constant of quinpirole-induced recruitment, one-phase association fit) (D2R V97C, FLAG-D2R-Rluc8) [s⁻¹]",increase of receptors in oligomers relative to D2R WT [5] [%]
β-arrestin-2-YFP (from UniProt P32121 1-409) (natural protein),35.5,0.001,0.02,68.4 s and 30.3 s and 41.1 s,39.4,0.0007,0.027,34.6,0.000113,0.00333,32.7,0.000181,0.00443,
B1,,,,,,,,,,,,,,~6

# From paper PMC12491437 (Nature Communications, 2025)
